The target in one test is T1, RPAP1 (human, UniProt Q9BWH6 1-1393, limits assumed).
T1 sequence (looked up): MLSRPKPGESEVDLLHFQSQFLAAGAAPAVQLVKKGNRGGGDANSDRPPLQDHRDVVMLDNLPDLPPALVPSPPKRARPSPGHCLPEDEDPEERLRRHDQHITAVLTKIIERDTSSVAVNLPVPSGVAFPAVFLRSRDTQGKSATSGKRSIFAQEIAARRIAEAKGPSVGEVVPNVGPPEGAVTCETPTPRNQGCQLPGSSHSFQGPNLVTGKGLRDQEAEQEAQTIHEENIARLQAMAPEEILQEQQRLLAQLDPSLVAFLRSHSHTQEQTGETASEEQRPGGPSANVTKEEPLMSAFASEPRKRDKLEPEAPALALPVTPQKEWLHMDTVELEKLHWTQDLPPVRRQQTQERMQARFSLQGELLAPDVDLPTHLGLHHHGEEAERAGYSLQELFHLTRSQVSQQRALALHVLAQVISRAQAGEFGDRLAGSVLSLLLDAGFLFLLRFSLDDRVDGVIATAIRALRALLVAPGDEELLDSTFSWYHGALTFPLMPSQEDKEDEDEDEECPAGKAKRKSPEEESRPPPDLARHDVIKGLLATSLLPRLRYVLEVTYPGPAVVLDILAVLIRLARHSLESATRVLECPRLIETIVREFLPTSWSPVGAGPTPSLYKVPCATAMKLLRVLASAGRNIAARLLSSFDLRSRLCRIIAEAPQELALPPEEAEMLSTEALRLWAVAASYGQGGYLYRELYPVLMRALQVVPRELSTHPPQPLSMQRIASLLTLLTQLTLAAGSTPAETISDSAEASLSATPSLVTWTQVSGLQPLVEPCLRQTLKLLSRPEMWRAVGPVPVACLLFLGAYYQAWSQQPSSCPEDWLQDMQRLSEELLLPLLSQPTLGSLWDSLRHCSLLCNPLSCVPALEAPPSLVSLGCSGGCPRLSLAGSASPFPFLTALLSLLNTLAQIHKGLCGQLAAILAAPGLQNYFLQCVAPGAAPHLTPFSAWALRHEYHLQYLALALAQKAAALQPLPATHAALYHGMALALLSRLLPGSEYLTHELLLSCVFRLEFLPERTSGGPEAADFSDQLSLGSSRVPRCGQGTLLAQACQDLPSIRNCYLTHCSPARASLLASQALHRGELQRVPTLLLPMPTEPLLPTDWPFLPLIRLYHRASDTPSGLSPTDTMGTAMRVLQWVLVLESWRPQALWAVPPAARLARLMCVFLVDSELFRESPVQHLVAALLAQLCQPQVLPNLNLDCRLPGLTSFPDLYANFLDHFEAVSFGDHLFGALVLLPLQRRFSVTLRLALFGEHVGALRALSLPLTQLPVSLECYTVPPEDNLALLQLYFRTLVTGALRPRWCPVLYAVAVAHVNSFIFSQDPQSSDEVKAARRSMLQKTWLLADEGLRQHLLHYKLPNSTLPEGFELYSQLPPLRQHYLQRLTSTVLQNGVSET
In words: IP/MS, LZTR1 R810W-FLAG, U87. Put shortly:
(§1)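 Extracted peptides in 3% acetonitrile/0.1% formic acid ran on a 50 cm C18 column into an Orbitrap Fusion, with MaxQuant identification and spectral counting.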

A further test concerns the target ARHGAP31 (human, UniProt Q2M1Z3 1-1444). In words: IP/MS, LZTR1 R810W-FLAG, U87. Put shortly:
as §1

This is an account of results in patent publication US20250262210A1 (TRUSTEES OF COLUMBIA UNIVERSITY IN THE CITY OF NEW YORK, published 2025).

Chain of ARHGAP31 (Q2M1Z3 whole entry): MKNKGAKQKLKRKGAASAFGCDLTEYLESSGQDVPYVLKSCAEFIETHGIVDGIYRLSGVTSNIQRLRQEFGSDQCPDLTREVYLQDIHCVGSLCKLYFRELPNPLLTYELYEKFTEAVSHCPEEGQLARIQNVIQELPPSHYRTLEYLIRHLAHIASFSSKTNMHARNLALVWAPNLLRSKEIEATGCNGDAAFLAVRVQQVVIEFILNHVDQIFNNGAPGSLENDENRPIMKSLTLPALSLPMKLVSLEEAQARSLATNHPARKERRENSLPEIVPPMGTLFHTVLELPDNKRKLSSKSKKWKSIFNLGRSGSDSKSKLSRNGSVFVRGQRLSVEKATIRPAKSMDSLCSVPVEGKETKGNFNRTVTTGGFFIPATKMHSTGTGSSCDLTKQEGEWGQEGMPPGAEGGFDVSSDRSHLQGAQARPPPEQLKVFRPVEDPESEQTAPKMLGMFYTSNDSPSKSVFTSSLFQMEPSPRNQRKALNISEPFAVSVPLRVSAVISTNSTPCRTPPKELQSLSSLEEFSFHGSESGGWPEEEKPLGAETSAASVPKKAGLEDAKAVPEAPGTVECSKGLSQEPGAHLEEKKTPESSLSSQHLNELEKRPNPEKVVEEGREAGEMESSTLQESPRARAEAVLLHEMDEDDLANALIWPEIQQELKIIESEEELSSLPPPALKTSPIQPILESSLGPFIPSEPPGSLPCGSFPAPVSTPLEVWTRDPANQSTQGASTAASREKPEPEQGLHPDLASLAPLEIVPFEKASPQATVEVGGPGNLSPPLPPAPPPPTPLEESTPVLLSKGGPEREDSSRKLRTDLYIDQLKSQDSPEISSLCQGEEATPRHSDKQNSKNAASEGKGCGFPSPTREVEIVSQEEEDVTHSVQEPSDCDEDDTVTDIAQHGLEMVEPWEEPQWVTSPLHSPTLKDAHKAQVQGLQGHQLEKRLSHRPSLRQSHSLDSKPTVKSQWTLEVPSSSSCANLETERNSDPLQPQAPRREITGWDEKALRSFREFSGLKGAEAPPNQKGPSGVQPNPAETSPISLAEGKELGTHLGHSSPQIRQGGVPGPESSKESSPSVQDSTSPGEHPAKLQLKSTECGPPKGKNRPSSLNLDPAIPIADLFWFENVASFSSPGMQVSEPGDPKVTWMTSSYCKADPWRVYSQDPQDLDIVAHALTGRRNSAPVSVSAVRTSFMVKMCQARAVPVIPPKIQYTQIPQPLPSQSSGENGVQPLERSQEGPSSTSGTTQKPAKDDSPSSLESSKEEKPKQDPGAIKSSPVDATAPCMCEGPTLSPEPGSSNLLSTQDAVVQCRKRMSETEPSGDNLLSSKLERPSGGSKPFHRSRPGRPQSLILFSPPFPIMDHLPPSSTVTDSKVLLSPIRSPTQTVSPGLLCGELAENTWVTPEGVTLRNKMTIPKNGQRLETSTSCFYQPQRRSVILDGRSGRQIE

B1: LZTR1 R810W-FLAG (other, human, UniProt Q8N653 1-840, looked up)
chain: MAGPGSTGGQIGAAALAGGARSKVAPSVDFDHSCSDSVEYLTLNFGPFETVHRWRRLPPCDEFVGARRSKHTVVAYKDAIYVFGGDNGKTMLNDLLRFDVKDCSWCRAFTTGTPPAPRYHHSAVVYGSSMFVFGGYTGDIYSNSNLKNKNDLFEYKFATGQWTEWKIEGRLPVARSAHGATVYSDKLWIFAGYDGNARLNDMWTIGLQDRELTCWEEVAQSGEIPPSCCNFPVAVCRDKMFVFSGQSGAKITNNLFQFEFKDKTWTRIPTEHLLRGSPPPPQRRYGHTMVAFDRHLYVFGGAADNTLPNELHCYDVDFQTWEVVQPSSDSEVGGAEVPERACASEEVPTLTYEERVGFKKSRDVFGLDFGTTSAKQPTQPASELPSGRLFHAAAVISDAMYIFGGTVDNNIRSGEMYRFQFSCYPKCTLHEDYGRLWESRQFCDVEFVLGEKEECVQGHVAIVTARSRWLRRKITQARERLAQKLEQEAAPVPREAPGVAAGGARPPLLHVAIREAEARPFEVLMQFLYTDKIKYPRKGHVEDVLLIMDVYKLALSFQLCRLEQLCRQYIEASVDLQNVLVVCESAARLQLSQLKEHCLNFVVKESHFNQVIMMKEFERLSSPLIVEIVRRKQQPPPRTPLDQPVDIGTSLIQDMKAYLEGAGAEFCDITLLLDGHPRPAHKAILAARSSYFEAMFRSFMPEDGQVNISIGEMVPSRQAFESMLRYIYYGEVNMPPEDSLYLFAAPYYYGFYNNRLQAYCKQNLEMNVTVQNVLQILEAADKTQALDMKRHCLHIIVHQFTKVSKLPTLWSLSQQLLLDIIDSLASHISDKQCAELGADI
notes: Stably expressed in U87 cells by lentivirus; also called LZTR1-FLAG-R810W; LZTR1 RW; not shown: FLAG tag
B1: the binding result in the test with RPAP1 and with ARHGAP31 was “binds” throughout.
